Source: patent US20190100588A1 (published 2019)
Numbering of substitutions follows the chain as printed.

T1: Pep6
T1 peptide: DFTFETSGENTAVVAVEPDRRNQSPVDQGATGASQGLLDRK

T2: Peptide 2a
T2 peptide: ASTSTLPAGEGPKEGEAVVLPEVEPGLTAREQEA

T3: recombinant CD138 extracellular domain (soluble CD138) (UniProt P18827 23-250)
T3 chain: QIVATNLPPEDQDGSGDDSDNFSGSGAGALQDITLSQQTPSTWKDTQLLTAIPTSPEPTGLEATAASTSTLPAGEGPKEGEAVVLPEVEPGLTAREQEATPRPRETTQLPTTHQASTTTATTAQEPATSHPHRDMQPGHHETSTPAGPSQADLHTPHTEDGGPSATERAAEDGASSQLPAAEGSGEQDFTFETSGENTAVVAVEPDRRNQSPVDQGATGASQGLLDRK

B1: antibody 1610 (antibody, V domains shown)
VH: QVQLHQPGTSLVKPGASVKLSCKASGYNFSSYYMHWVKQRPGQGLEWIGTIHPSDSTTNCNQKFKGKATLTVDKSSRTAYMQLNSLTFEDSAVYYCANFVYWGQGTSVTVSS
VL: DIVITQDELSNPVTSGDSVSISCRSSKSLLYKDGKTYLNWFLQRPGQSPQLLIYVVSTRASGVSDRFSGSGSGTDFTLEISRVKAEDVGVYYCQQLVEYPYTFGGGTKLEIK
B2: antibody 2810 (antibody, V domains shown)
VH: B1 VH with N28S, C60Y
VL: B1 VL
B3: antibody 2610 (antibody, V domains shown)
VH: B1 VH with N28S
VL: B1 VL
B4: antibody 2510 (antibody, V domains shown)
VH: B1 VH with C60Y
VL: B1 VL

Molecular target: T1, Pep6
Assay: ELISA

Binder	EC50
B1	12.3 ng/mL
B2	3.2 ng/mL
B3	4.9 ng/mL
B4	8.9 ng/mL

Molecular target: T2, Peptide 2a
Assay: ELISA

Binder	EC50
B1	3.9 ng/mL
B2	2.8 ng/mL
B3	3.8 ng/mL
B4	4.6 ng/mL

Molecular target: T3, recombinant CD138 extracellular domain …
Assay: ELISA

Binder	EC50
B1	2.7 ng/mL
B2	5.3 ng/mL
B3	7 ng/mL
B4	4.9 ng/mL
